The data set concerns the molecule itself. The experiment in a line: nonreducing PAGE and immunoblotting. (In general: In western blotting, separated proteins are transferred to a membrane and probed.)

B1: STING (natural protein, mouse (endogenous in BMDMs), UniProt Q3TBT3 1-378, looked up)
chain: MPYSNLHPAIPRPRGHRSKYVALIFLVASLMILWVAKDPPNHTLKYLALHLASHELGLLLKNLCCLAEELCHVQSRYQGSYWKAVRACLGCPIHCMAMILLSSYFYFLQNTADIYLSWMFGLLVLYKSLSMLLGLQSLTPAEVSAVCEEKKLNVAHGLAWSYYIGYLRLILPGLQARIRMFNQLHNNMLSGAGSRRLYILFPLDCGVPDNLSVVDPNIRFRDMLPQQNIDRAGIKNRVYSNSVYEILENGQPAGVCILEYATPLQTLFAMSQDAKAGFSREDRLEQAKLFCRTLEEILEDVPESRNNCRLIVYQEPTDGNSFSLSQEVLRHIRQEEKEEVTMNAPMTSVAPPPSVLSQEPRLLISGMDQPLPLRTDLI
For orientation: stoichiometry N means the number of molecules, sites or subunits per partner or assembly. Regarding B1, the “stoichiometry N” value is 2.

(Values after article PMC6347470 (Immunity, 2018).)
